Measurements from US20150258192A1, “COMPOSITIONS AND METHODS FOR PREVENTING OR TREATING CHRONIC LUNG ALLOGRAFT DYSFUNCTION (CLAD) AND IDIOPATHIC PULMONARY FIBROSIS (IPF)” (priority 2014, published 2015).
No end group written: not given here.

What was measured:
Experiment in all cases: Kinase Profiling Assay
Type in all cases: biochemical
Conditions in all cases: peptide 100 μM
ULK3(h) = target: T1, ULK3(h) (Homo sapiens, UniProt Q6PHR2)
T1 sequence (Q6PHR2 1-472): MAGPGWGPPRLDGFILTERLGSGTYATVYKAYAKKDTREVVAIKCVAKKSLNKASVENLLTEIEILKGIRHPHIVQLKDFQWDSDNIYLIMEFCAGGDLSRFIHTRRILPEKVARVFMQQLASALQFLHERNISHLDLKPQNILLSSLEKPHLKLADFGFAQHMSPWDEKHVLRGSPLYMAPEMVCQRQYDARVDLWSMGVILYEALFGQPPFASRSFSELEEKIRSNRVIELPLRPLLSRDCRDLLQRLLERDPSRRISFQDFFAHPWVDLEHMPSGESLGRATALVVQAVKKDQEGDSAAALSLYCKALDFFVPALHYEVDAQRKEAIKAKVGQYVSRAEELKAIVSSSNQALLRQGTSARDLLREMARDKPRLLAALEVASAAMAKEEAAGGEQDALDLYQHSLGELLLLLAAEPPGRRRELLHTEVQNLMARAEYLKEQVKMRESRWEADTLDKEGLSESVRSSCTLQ
Procedure, shortened: (§1)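 Duplicate wells; [radiolabeled] ATP phosphate onto cationic substrate; filter capture (negatively charged membrane); scintillation count; % of 100% activity control. Selectivity screen of MK2 peptide inhibitors, 266 human kinases.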

CDK2/cyclinA(h) = CDK2/cyclinA(h) (Homo sapiens, UniProt P24941)
Procedure, shortened: as §1

TrkB(h) = TrkB(h) (Homo sapiens, UniProt Q16620)
Procedure, shortened: as §1

SAPK3(h) = target: T2, SAPK3(h) (Homo sapiens, UniProt P53778)
T2 construct: purchased Millipore
T2 sequence (P53778 1-367): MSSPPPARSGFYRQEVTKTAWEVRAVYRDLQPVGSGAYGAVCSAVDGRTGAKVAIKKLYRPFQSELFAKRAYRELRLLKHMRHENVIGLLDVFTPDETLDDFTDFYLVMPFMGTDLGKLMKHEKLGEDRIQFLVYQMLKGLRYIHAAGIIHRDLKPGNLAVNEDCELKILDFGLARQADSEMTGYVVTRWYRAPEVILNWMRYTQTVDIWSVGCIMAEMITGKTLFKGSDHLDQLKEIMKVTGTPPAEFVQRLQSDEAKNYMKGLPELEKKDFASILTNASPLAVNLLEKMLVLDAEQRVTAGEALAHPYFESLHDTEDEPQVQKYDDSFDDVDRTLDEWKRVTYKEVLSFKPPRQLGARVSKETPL
Procedure, shortened: as §1

Txk(h) = target: T3, Txk(h) (Homo sapiens, UniProt P42681)
T3 sequence (P42681 1-527): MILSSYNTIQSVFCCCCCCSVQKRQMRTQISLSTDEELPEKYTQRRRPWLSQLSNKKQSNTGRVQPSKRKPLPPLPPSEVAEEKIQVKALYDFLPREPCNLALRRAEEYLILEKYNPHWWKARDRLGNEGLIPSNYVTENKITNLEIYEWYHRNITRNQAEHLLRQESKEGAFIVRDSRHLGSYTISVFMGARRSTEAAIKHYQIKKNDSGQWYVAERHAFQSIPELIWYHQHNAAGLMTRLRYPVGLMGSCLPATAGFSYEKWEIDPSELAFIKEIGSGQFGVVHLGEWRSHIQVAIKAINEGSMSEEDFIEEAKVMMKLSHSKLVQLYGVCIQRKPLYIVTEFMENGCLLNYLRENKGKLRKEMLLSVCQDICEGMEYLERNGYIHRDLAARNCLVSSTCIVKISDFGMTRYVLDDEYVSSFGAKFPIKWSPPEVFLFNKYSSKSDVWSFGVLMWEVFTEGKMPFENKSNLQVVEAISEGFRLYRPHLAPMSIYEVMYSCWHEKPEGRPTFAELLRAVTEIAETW
Procedure, shortened: as §1

LKB1(h) = target: T4, LKB1(h) (Homo sapiens, UniProt Q15831)
T4 construct: purchased Millipore
T4 sequence (Q15831 1-433): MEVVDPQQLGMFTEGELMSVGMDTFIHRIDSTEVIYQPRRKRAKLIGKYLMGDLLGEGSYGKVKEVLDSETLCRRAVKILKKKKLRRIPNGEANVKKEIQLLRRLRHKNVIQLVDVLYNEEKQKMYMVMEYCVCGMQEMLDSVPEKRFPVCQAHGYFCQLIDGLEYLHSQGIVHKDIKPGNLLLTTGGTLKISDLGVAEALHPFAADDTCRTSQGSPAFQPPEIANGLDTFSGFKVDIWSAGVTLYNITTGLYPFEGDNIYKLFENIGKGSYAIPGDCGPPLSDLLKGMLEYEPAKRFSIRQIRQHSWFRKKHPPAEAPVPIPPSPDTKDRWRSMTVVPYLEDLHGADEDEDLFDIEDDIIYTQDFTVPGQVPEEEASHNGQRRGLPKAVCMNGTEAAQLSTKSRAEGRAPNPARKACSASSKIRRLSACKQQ
T4 sequence (Q7RTN6 1-431 partner): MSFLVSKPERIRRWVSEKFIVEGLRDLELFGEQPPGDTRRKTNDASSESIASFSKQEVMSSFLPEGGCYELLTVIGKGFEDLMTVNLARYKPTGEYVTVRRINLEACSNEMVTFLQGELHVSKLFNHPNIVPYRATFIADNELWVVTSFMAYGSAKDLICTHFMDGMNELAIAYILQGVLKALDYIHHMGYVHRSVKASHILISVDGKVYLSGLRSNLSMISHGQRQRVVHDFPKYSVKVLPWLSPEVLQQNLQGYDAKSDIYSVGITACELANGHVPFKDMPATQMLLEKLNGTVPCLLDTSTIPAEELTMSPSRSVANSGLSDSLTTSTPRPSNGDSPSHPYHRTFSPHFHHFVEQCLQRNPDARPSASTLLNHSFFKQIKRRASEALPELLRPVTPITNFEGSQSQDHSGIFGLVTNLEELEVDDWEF
T4 sequence (Q9Y376 1-341 partner): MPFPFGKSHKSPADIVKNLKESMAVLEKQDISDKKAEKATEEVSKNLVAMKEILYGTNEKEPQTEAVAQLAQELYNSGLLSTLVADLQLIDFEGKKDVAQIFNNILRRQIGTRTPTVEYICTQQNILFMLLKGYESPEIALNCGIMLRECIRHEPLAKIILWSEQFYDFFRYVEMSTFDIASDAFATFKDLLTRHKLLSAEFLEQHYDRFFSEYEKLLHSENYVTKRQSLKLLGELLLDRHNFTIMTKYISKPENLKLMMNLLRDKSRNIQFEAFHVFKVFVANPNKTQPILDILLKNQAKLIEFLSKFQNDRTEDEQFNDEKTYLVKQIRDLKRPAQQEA
Procedure, shortened: as §1

Sequence	% activity (ULK3(h)) [%]	% activity (CDK2/cyclinA(h)) [%]	% activity (TrkB(h)) [%]	% activity (SAPK3(h)) [%]	% activity (Txk(h)) [%]	% activity (LKB1(h)) [%]
HRRIKAWLKKIKALARQLGVAA (Mammal) [MMI-0500]	177	87	12	24	10	51
YARAAARQARAKALNRQLGVA (Mammal) [MMI-0200]	164	–	7	97	98	99
YARAAARQARAKALARQLGVAA [MMI-0100]	142	–	4	–	87	–
FAKLAARLYRKALARQLGVAA [MMI-0300]	167	86	5	84	48	101
KAFAKLAARLYRKALARQLGVAA [MMI-0400]	147	92	8	79	37	89
